Assay results reported in patent US20230357431A1.
Read-outs that look alike come from different tables or passages of the source. One block for each substance: values may come before it.

How the values were obtained:
[1] = biological target: VL1VH3-CD8ATD-CD137CSD-CD3zSSD fusion (anti-P329G chimeric antigen receptor, VLVH orientation)
[2] = biological target: VH2VL1-CD8ATD-CD137CSD-CD3zSSD fusion (anti-P329G chimeric antigen receptor)
[3] = biological target: VH3VL1-CD8ATD-CD137CSD-CD3zSSD fusion (anti-P329G chimeric antigen receptor)
Sequence of VH3VL1-CD8ATD-CD137CSD-CD3zSSD fusion (anti-P329G chimeric antigen receptor) (chain, as listed by the source P329G P329G): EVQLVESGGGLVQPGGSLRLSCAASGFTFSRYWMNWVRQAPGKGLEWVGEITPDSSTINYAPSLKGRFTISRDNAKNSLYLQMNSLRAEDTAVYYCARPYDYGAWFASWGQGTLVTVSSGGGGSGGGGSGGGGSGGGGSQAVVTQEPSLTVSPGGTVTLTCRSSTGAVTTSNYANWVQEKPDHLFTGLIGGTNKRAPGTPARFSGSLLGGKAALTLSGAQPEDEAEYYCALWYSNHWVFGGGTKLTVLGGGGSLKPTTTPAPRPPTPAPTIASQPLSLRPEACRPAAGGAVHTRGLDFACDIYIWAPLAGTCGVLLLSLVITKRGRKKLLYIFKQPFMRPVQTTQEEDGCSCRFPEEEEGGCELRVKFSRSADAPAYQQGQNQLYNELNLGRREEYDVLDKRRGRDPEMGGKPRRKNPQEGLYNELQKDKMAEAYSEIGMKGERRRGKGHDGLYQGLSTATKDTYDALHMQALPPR

[4] = biological target: VL1VH3-CD8ATD-CD137CSD-CD3zSSD fusion (anti-P329G chimeric antigen receptor, VLVH orientation); remark: listed apart in the source
[5] = biological target: VH2VL1-CD8ATD-CD137CSD-CD3zSSD fusion (anti-P329G chimeric antigen receptor); remark: listed apart in the source
[6] = biological target: VH1VL1-CD8ATD-CD137CSD-CD3zSSD fusion (anti-P329G chimeric antigen receptor)
Sequence of VH1VL1-CD8ATD-CD137CSD-CD3zSSD fusion (anti-P329G chimeric antigen receptor) (chain, as listed by the source P329G P329G): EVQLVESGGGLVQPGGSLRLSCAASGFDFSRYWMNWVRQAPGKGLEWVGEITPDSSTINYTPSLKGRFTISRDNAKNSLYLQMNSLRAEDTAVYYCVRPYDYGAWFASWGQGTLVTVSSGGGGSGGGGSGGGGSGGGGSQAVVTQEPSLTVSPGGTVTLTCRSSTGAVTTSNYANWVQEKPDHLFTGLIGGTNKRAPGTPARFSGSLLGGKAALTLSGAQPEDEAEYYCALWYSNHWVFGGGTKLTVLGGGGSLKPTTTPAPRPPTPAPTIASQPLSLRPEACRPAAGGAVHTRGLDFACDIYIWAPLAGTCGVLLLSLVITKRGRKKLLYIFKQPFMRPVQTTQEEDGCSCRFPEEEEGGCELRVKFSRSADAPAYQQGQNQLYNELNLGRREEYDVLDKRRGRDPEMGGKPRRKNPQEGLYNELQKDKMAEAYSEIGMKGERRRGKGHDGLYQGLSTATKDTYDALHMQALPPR

[7] = biological target: VH3VL1-CD8ATD-CD137CSD-CD3zSSD fusion (anti-P329G chimeric antigen receptor); remark: listed apart in the source
[8] = biological target: VL1VH3-CD8ATD-CD137CSD-CD3zSSD fusion (anti-P329G chimeric antigen receptor, VLVH orientation); remark: listed apart in the source
[9] = biological target: VH1VL1-CD8ATD-CD137CSD-CD3zSSD fusion (anti-P329G chimeric antigen receptor); remark: listed apart in the source
[10] = biological target: VL1VH3-CD8ATD-CD137CSD-CD3zSSD fusion (anti-P329G chimeric antigen receptor, VLVH orientation); remark: listed apart in the source
[11] = biological target: VH2VL1-CD8ATD-CD137CSD-CD3zSSD fusion (anti-P329G chimeric antigen receptor); remark: listed apart in the source
[12] = biological target: VH1VL1-CD8ATD-CD137CSD-CD3zSSD fusion (anti-P329G chimeric antigen receptor); remark: listed apart in the source
[13] = biological target: VH3VL1-CD8ATD-CD137CSD-CD3zSSD fusion (anti-P329G chimeric antigen receptor); remark: listed apart in the source
[14] = biological target: VL1VH3-CD8ATD-CD137CSD-CD3zSSD fusion (anti-P329G chimeric antigen receptor, VLVH orientation); remark: listed apart in the source
[15] = biological target: VH2VL1-CD8ATD-CD137CSD-CD3zSSD fusion (anti-P329G chimeric antigen receptor); remark: listed apart in the source
[16] = biological target: VH1VL1-CD8ATD-CD137CSD-CD3zSSD fusion (anti-P329G chimeric antigen receptor); remark: listed apart in the source
[17] = biological target: VH3VL1-CD8ATD-CD137CSD-CD3zSSD fusion (anti-P329G chimeric antigen receptor); remark: listed apart in the source

Sequence of VL1VH3-CD8ATD-CD137CSD-CD3zSSD fusion (anti-P329G chimeric antigen receptor, VLVH orientation) (chain, as listed by the source P329G P329G): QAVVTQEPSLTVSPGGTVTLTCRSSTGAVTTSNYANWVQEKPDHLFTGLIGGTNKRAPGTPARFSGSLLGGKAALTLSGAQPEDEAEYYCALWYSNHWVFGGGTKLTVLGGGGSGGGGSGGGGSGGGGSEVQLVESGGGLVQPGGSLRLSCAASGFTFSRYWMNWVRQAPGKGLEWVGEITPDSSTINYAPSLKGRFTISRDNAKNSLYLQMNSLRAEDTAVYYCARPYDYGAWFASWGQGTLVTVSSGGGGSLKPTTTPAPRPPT
Sequence of VH2VL1-CD8ATD-CD137CSD-CD3zSSD fusion (anti-P329G chimeric antigen receptor) (chain, as listed by the source P329G P329G): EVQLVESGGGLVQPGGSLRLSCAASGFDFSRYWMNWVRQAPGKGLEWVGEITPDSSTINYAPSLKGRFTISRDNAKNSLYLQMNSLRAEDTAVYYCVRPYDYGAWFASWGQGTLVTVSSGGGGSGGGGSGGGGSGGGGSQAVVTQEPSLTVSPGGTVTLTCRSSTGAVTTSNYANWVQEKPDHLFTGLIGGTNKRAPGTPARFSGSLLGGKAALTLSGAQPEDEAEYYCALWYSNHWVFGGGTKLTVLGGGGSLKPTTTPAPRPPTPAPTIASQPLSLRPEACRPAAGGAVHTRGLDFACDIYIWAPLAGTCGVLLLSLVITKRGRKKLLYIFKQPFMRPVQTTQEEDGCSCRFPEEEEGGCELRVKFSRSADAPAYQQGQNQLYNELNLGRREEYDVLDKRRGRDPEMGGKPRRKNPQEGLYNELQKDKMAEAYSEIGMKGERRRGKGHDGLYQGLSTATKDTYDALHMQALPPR

Substance: DP47 P329G LALA (antibody)
- EC50, Jurkat NFAT luciferase reporter (RLU/s), WSUDLCL2 target cells 5:1, non-targeting antibody; the curve stays at about 60 to 110 RLU/s (no activation), so the fitted value has no meaning [1]: 7420 pM
- EC50, Jurkat NFAT luciferase reporter (RLU/s), WSUDLCL2 target cells 5:1, non-targeting antibody; the curve stays at about 60 to 90 RLU/s (no activation), so the fitted value has no meaning [2]: 293 pM
- EC50, Jurkat NFAT luciferase reporter (RLU/s), WSUDLCL2 target cells 5:1, non-targeting antibody; flat at about 90 RLU/s with a small rise to about 190 RLU/s at the last point, no plateau [3]: 43200 pM

Substance: anti-CD20 (GA101) P329G LALA IgG1 (antibody)
- EC50, Jurkat NFAT luciferase reporter (RLU/s), WSUDLCL2 target cells 5:1; sigmoid curve with upper plateau [10]: 6.58 pM
- EC50, Jurkat NFAT luciferase reporter (RLU/s), WSUDLCL2 target cells 5:1; sigmoid curve with upper plateau [11]: 6.93 pM
- EC50, Jurkat NFAT luciferase reporter (RLU/s), WSUDLCL2 target cells 5:1; sigmoid curve with upper plateau [12]: 8.1 pM
- EC50, Jurkat NFAT luciferase reporter (RLU/s), WSUDLCL2 target cells 5:1; sigmoid curve with upper plateau [13]: 7.57 pM

Substance: anti-CD20 (GA101) wild type IgG1 (antibody)
- EC50, Jurkat NFAT luciferase reporter (RLU/s), WSUDLCL2 target cells 5:1; the curve is flat (no activation), so the fitted value has no meaning [14]: 78.3 pM
- EC50, Jurkat NFAT luciferase reporter (RLU/s), WSUDLCL2 target cells 5:1; the curve is flat (no activation), so the fitted value has no meaning [15]: 0.000119 pM
- EC50, Jurkat NFAT luciferase reporter (RLU/s), WSUDLCL2 target cells 5:1; the curve is flat (no activation), so the fitted value has no meaning [16]: 2.19 pM
- EC50, Jurkat NFAT luciferase reporter (RLU/s), WSUDLCL2 target cells 5:1; the curve is flat (no activation), so the fitted value has no meaning [17]: 85 pM

Continued, values first:

- EC50, Jurkat NFAT luciferase reporter (RLU/s), WSUDLCL2 target cells 5:1; sigmoid curve with upper plateau [4]: 6.19 pM
- EC50, Jurkat NFAT luciferase reporter (RLU/s), WSUDLCL2 target cells 5:1; sigmoid curve with upper plateau [5]: 10.4 pM
- EC50, Jurkat NFAT luciferase reporter (RLU/s), WSUDLCL2 target cells 5:1; sigmoid curve with upper plateau [6]: 8.14 pM
- EC50, Jurkat NFAT luciferase reporter (RLU/s), WSUDLCL2 target cells 5:1; sigmoid curve with upper plateau [7]: 5.82 pM
Substance: anti-CD20 (GA101) D246A P329G IgG1 (antibody)

- EC50, Jurkat NFAT luciferase reporter (RLU/s), WSUDLCL2 target cells 5:1; the curve is flat (no activation), so the fitted value has no meaning [8]: 0.000234 pM
- EC50, Jurkat NFAT luciferase reporter (RLU/s), WSUDLCL2 target cells 5:1; the curve is flat (no activation), so the fitted value has no meaning [9]: 0.0485 pM
Substance: anti-CD20 (GA101) LALA IgG1 (antibody)
